Results as given in publication PMC2789969 (Archives of biochemistry and biophysics, 2009).
Like-named read-outs stand apart in the source and are kept apart here.

B2: R369A EGK (enzyme, Escherichia coli, UniProt P0A6F3 1-502, looked up)
chain: MTEKKYIVALDQGTTSSRAVVMDHDANIISVSQREFEQIYPKPGWVEHDPMEIWATQSSTLVEVLAKADISSDQIAAIGITNQRETTIVWEKETGKPIYNAIVWQCRRTAEICEHLKRDGLEDYIRSNTGLVIDPYFSGTKVKWILDHVEGSRERARRGELLFGTVDTWLIWKMTQGRVHVTDYTNASRTMLFNIHTLDWDDKMLEVLDIPREMLPEVRRSSEVYGQTNIGGKGGTRIPISGIAGDQQAALFGQLCVKEGMAKNTYGTGCFMLMNTGEKAVKSENGLLTTIACGPTGEVNYALEGAVFMAGASIQWLRDEMKLINDAYDSEYFATKVQNTNGVYVVPAFTGLGAPYWDPYARGAIFGLTAGVNANHIIRATLESIAYQTRDVLEAMQADSGIRLHALRVDGGAVANNFLMQFQSDILGTRVERPEVREVTALGAAYLAGLAVGFWQNLDELQEKAVIEREFRPGIETTERNYRYAGWKKAVKRAMAWEEHDE
B3: A65T EGK (enzyme, Escherichia coli, UniProt P0A6F3 1-502, looked up)
chain: MTEKKYIVALDQGTTSSRAVVMDHDANIISVSQREFEQIYPKPGWVEHDPMEIWATQSSTLVEVLTKADISSDQIAAIGITNQRETTIVWEKETGKPIYNAIVWQCRRTAEICEHLKRDGLEDYIRSNTGLVIDPYFSGTKVKWILDHVEGSRERARRGELLFGTVDTWLIWKMTQGRVHVTDYTNASRTMLFNIHTLDWDDKMLEVLDIPREMLPEVRRSSEVYGQTNIGGKGGTRIPISGIAGDQQAALFGQLCVKEGMAKNTYGTGCFMLMNTGEKAVKSENGLLTTIACGPTGEVNYALEGAVFMAGASIQWLRDEMKLINDAYDSEYFATKVQNTNGVYVVPAFTGLGAPYWDPYARGAIFGLTRGVNANHIIRATLESIAYQTRDVLEAMQADSGIRLHALRVDGGAVANNFLMQFQSDILGTRVERPEVREVTALGAAYLAGLAVGFWQNLDELQEKAVIEREFRPGIETTERNYRYAGWKKAVKRAMAWEEHDE

Columns and labels:
[1] = target: B3; assay: linked-functions initial-velocity enzyme kinetics
[2] = target: T1, Escherichia coli glycerol kinase (Escherichia coli, UniProt P0A6F3 1-502); assay: linked-functions initial-velocity enzyme kinetics
[3] = target: B2; assay: linked-functions initial-velocity enzyme kinetics
[4] = target: B3; assay: linked-functions initial-velocity enzyme kinetics; remark: listed apart in the source
[5] = target: T1, Escherichia coli glycerol kinase; assay: linked-functions initial-velocity enzyme kinetics; remark: listed apart in the source
[6] = target: B2; assay: linked-functions initial-velocity enzyme kinetics; remark: listed apart in the source
[7] = target: the molecule itself; assay: AUC

B1: IIA^Glc, the glucose-specific phosphocarrier protein of the phosphoenolpyruvate:glycose phosphotransferase system (natural protein)
chain: GLFDKLKSLVSDDKKDTGTIEIIAPLSGEIVNIEDVPDVVFAEKIVGDGIAIKPTGNKMVAPVDGTIGKIFETNHAFSIESDSGVELFVHFGIDTVELKGEGFKRIAEEGQRVKVGDTVIEFDLPLLEEKAKSTLTPVVISNMDEIKELIKLSGSVTVGETPVIRIKK
[1]
  Kd: 28 µM
[2]
  Kd: 7 µM
[3]
  Kd: 2 µM
[4]
  Kd: 8 µM
[5]
  Kd: 4.6 µM
[6]
  Kd: 1.8 µM

## B2
[7]
  stoichiometry N: 4

## B3
[7]
  binding result: binds
